Assay [1] concerns Saccharomyces cerevisiae strain YPH499. As to the kind of experiment: Production of Reb.C from steviol in yeast coexpressing UGTs and AtRHM2. The format is cell-based. The following applies: yeast coexpressing UGT85C2, UGT74G1, UGT76G1 and AtRHM2; 0.5 μg or 2 μg of steviol per 1 ml; HPLC, LC-MS. The text has this: [Example 5] RebC synthesis by fermentative production using yeast Various steviol glycosides were produced from steviol in yeast. First, yeast that simultaneously expresses the 4 glycosylation enzyme genes UGT85C2 (SEQ ID NO: 7), UGT91D2 (SEQ ID NO: 3), UGT74G1 (SEQ ID NO: 9), and UGT76G1 (SEQ ID NO: 11) or the 4 genes UGT85C2, UGT91D2L #16, UGT74G1, and UGT76G1 from Stevia rebaudiana and the UDP-rhamnose synthase gene AtRHM2 (SEQ ID NO: 13) from Arabidopsis thaliana has been created.
The plasmids set forth in Table 1 were introduced into the Saccharomyces cerevisiae strain YPH499 (ura3-52 lys2-801^amber ade2-101^ochre trp1-Δ63 his3-Δ200 leu2-Δ1 a) as a host by the lithium acetate method. Those that grew on SC-Trp&Ura&His agar medium (6.7 g of Yeast nitrogen base without amino acids, 20 g of glucose, 1.3 g of amino acid mixture powder Trp&Ura&His, 20 g of Bacto agar, per 1 L) were selected as transformant strains.
First, 10 ml of SC-Trp&Ura&His liquid medium (SC-Trp&Ura&His agar medium without Bacto agar) was inoculated each transformant strain as a preculture and cultured with shaking at 30° C. for 1 day. […]
The obtained glycoside sample was analyzed with high performance liquid chromatography (HPLC). […]

Assay [2] can be described thus: in vitro glucosylation activity (GlcT) of Escherichia coli-expressed UGT protein with UDP-glucose. The format is biochemical. As to conditions: recombinant protein, 30° C. 1 hour, LC-MS. As for the experimental part:
(§1) The standard enzymatic reaction conditions are as follows. A reaction solution (2 mM UDP-glucose, 0.1 mM sugar receptor substrate, 100 mM potassium phosphate buffer (pH 7.5), 25 μl of purified enzyme solution) was prepared to 50 μl with distilled water and incubated at 30° C. for 1 hour to react. The LC-MS analysis of 5 μl of the enzymatic reaction solution was carried out under the following conditions.
(§2) • Column: Imtakt SM-C18 3.0 um 4.6 mm I.D.×250 mm • Mobile phase: A: MilliQ Water (+0.2% acetic acid), • B: Methanol • Gradient: 0 to 5 min (B conc 10% constant), 5 to 20 min (B conc 10%→70%), 20 to 25 min (B conc 70%→100%), 25 to 35 min (B conc 100% constant), 35 to 36 min (B conc 100%→10%), 45 min end of analysis • Flow rate: 0.4 mL/min • Column oven: 40° C.
(§3) Evaluation of Mutants 1 and 2 was then made using the protein expressed in Escherichia coli in the same manner as in Example 4. The glucosylation activity (GlcT) and the rhamnosylation activity (RhaT) were evaluated using UDP-glucose and UDP-rhamnose, respectively, as the sugar donor and using rubusoside as the substrate, which is a sugar receptor. Stevioside and dulcoside A were produced as the reaction products in the former and in the latter, respectively.

Assay [3] is described as follows: in vitro rhamnosylation activity (RhaT) of Escherichia coli-expressed UGT protein with UDP-rhamnose. The format is biochemical. As to conditions: recombinant protein, LC-MS. The method, then:
as §1, §2, §3

B1: UGT91D2: known Stevia rebaudiana UDP sugar-dependent glycosyltransferase, amino acid sequence SEQ ID NO: 4 (protein, listed as Stevia rebaudiana)
chain: MYNVTYHQNSKAMATSDSIVDDRKQLHVATFPWLAFGHILPYLQLSKLIAEKGHKVSFLSTTRNIQRLSSHISPLINVVQLTLPRVQELPEDAEATTDVHPEDIPYLKKASDGLQPEVTRFLEQHSPDWIIYDYTHYWLPSIAASLGISRAHFSVTTPWAIAYMGPSADAMINGSDGRTTVEDLTTPPKWFPFPTKVCWRKHDLARLVPYKAPGISDGYRMGLVLKGSDCLLSKCYHEFGTQWLPLLETLHQVPVVPVGLLPPEIPGDEKDETWVSIKKWLDGKQKGSVVYVALGSEVLVSQTEVVELALGLELSGLPFVWAYRKPKGPAKSDSVELPDGFVERTRDRGLVWTSWAPQLRILSHESVCGFLTHCGSGSIVEGLMFGHPLIMLPIFGDQPLNARLLEDKQVGIEIPRNEEDGCLTKESVARSLRSVVVEKEGEIYKANARELSKIYNDTKVEKEYVSQFVDYLEKNARAVAIDHES
For B1, the “amount of Reb.C produced” value in assay [1] was “Reb.C was produced”. Moreover, the “activity to glucosylate rubusoside to produce stevioside” value in assay [2] was “production of stevioside”. Also, the “activity to rhamnosylate rubusoside to produce dulcoside A” value in assay [3] is given as “production of dulcoside A”.

B2: UGT91D2L #16: novel Stevia rebaudiana UGT highly homologous with UGT91D2, amino acid sequence SEQ ID NO: 2 (protein, listed as Stevia rebaudiana)
chain: MYNVTYHQNSKAMATSDSIVDDRKQLHVATFPWLAFGHILPFLQLSKLIAEKGHKVSFLSTTRNIQRLSSHISPLINVVQLTLPRVQELPEDAEATTDVHPEDIPYLKKASDGLQPEVTRFLEQHSPDWIIYDYTHYWLPSIAASLGISRAHFSVVTPWAIAYMGPSADAMINGSDGRTTVEDLTTPPKWFPFPTKVCWRKHDLARLVPYKAPGISDGYRMGLVLKGSDCLLFKCYHEFGTQWLPLLETLHQVPVVPVGLLPPEIPGDEKDETWVSIKKWLDGKQKGSVVYVALGSEALVSQTEVVELALGLELSGLPFVWAYRKPKGPAKSDSVELPDGFVERTRDRGLVWTSWAPQLRILSHESVCGFLTHCGSGSIVEGLMFGHPLIMLPLFGDQPLNARLLEDKQVGIEIPRNEEDGCLTKESVARSLRSVVVENEGEIYKANARELSKIYNDTKVEKEYVSQFVDFLEKNARAVAIDHES
On to B2, for which the “amount of Reb.C produced” value in assay [1] was “higher than that in the strain A-5678 expressing UGT91D2”. Also, the “activity to glucosylate rubusoside to produce stevioside” value in assay [2] is recorded as “weaker than SrUGT91D2”. Further, the “activity to rhamnosylate rubusoside to produce dulcoside A” value in assay [3] was “markedly higher than SrUGT91D2”.
